Experimental data from patent publication US7947279B2, “Peptide having hydrolase activity” (The Trustees of Columbia University in the City of New York, priority 2005, dated 2011).
“Also recorded” adds a separate entry of the source.

B1: TAT-HA-Uch-L1: fusion protein: 11-amino acid transduction domain of HIV-transactivator protein (TAT) fused with an HA tag and human Uch-L1 (protein)
chain: MQLKPMEINPEMLNKVLSRLGVAGQWRFVDVLGLEEESLGSVPAPACALLLLFPLTAQHENFRKKQIEELKGQEVSPKVYFMKQTIGNSCGTIGLIHAVANNQDKLGFEDGSVLKQFLSETEKMSPEDRAKCFEKNEAIQAAHDAVAQEGQCRVDDKVNFHFILFNNVDGHLYELDGRMPFPVNHGASSEDTLLKDAAKVCREFTEREQGEVRFSAVALCKAA
modifications: left off: small tags and cut ends

Legend:
Uch-L3 [1] = molecular target: T1, Uch-L3 (Homo sapiens, UniProt P15374); experiment: Nedd8-AMC hydrolysis by Uch-L3; assay type: biochemical; conditions: 5 μM LDN, 20 nM Uch-L3, Nedd8-AMC 400 nM
T1 sequence (P15374 1-230): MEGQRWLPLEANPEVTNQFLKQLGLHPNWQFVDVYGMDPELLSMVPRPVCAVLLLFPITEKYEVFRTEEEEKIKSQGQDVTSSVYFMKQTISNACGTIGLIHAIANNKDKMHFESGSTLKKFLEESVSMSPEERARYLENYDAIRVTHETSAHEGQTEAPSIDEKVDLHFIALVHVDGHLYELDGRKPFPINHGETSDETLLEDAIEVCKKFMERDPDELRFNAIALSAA
Method: Measurement of Hydrolase Activity: The hydrolase assay was performed as previously described (Nishikawa et al., 2003) with slight modifications. Briefly, hippocampal tissue was treated with tissue protein extraction reagent (T-PER; Pierce) containing freshly added EDTA-free protease inhibitors. Homogenate was centrifuged at 10,000 rpm for 5 min. Protein concentration was measured in the supernatant using the BCA protein assay reagent. In some experiments hydrolysis was initiated by adding 10 μl of 20 nM Uch-L1 or Uch-L3 (Boston Biochem). The hydrolase assay was performed using fluorogenic ubiquitin-7-amino-4-methylcoumarin (ubiquitin-AMC) (Boston Biochem) as a substrate. The substrate was diluted in assay buffer (50 mM Tris-HCL, 0.5 mM EDTA, 5 mM dithiothreitol and 0.1 mg/ml ovalbumin, pH 7.6). […] The reaction was monitored using a fluorescence spectrophotometer (CytoFluor Series 4000, ABI Inc) at 25° C. The free AMC fluorophore was excited at 380 nm and measured at 460 nm. Hydrolase activity was expressed as relative fluorescence intensity/min (Dang et al., 1998). In some experiments, hydrolysis was also measured on the soluble and insoluble fractions (FIG. 28D). In a group of experiments hydrolysis was measured by mixing ubiquitin-AMC with 20 nM TAT fusion proteins (FIG. 27C). […]

Uch-L3 [2] = molecular target: T1, Uch-L3; conditions: cited from earlier work
Uch-L1 [3] = molecular target: T2, Uch-L1 (Mus musculus, UniProt Q9R0P9); experiment: Hydrolase (ubiquitin-AMC) assay on hippocampi of injected mice; assay type: in vivo
T2 construct: hippocampal tissue was treated with tissue protein extraction reagent; from tissue; host or cells: mouse hippocampal slices (C57/BL6 or APP/PS1 and WT littermates)
T2 sequence (Q9R0P9 1-220): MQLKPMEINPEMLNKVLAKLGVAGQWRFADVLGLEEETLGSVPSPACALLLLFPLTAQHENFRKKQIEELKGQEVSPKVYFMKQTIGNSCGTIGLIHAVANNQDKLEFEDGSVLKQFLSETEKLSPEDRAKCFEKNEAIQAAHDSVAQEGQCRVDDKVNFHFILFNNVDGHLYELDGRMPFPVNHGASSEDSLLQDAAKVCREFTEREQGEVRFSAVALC
Method: (§1) Measurement of Hydrolase Activity: The hydrolase assay was performed as previously described (Nishikawa et al., 2003) with slight modifications. Briefly, hippocampal tissue was treated with tissue protein extraction reagent (T-PER; Pierce) containing freshly added EDTA-free protease inhibitors. Homogenate was centrifuged at 10,000 rpm for 5 min. Protein concentration was measured in the supernatant using the BCA protein assay reagent. In some experiments hydrolysis was initiated by adding 10 μl of 20 nM Uch-L1 or Uch-L3 (Boston Biochem). The hydrolase assay was performed using fluorogenic ubiquitin-7-amino-4-methylcoumarin (ubiquitin-AMC) (Boston Biochem) as a substrate. The substrate was diluted in assay buffer (50 mM Tris-HCL, 0.5 mM EDTA, 5 mM dithiothreitol and 0.1 mg/ml ovalbumin, pH 7.6). Each reaction mixture containing 400 nM substrate and 100 μg enzyme sample was incubated for 5 min at room temperature. The reaction was monitored using a fluorescence spectrophotometer (CytoFluor Series 4000, ABI Inc) at 25° C. The free AMC fluorophore was excited at 380 nm and measured at 460 nm. Hydrolase activity was expressed as relative fluorescence intensity/min (Dang et al., 1998). In some experiments, hydrolysis was also measured on the soluble and insoluble fractions (FIG. 28D). In a group of experiments hydrolysis was measured by mixing ubiquitin-AMC with 20 nM TAT fusion proteins (FIG. 27C). In other experiments the substrate was Nedd8-AMC (Boston Biochem). LDN-57444 was purchased from Calbiochem.

hippocampal slices = assay type: cell-based, mouse
Method: Western Blotting: Protein levels were assessed using standard procedures. Protein extraction was performed using buffer with and without detergent. For the extraction of protein using detergent, hippocampal tissues and cultured hippocampal neurons (5 DIV) were homogenized in RIPA buffer (50 mM Tris-HCl pH 7.4, 1% Triton X-100, 1% sodium deoxycholate, 0.1% SDS, 150 mM sodium chloride, 10 mM sodium fluoride, 30 mM sodium pyrophosphate, 50 mM sodium orthovanadate) containing 1× complete protease inhibitor (Roche) and 1 mM phenylmethylsulfonyl fluoride (PMSF). For extraction of proteins without detergent, hippocampal extracts were homogenized with disposable dounce homogenizers in buffer A, containing 10 mM HEPES pH 7.3, 300 mM sucrose, protease 1× complete protease inhibitor (Roche) and PMSF. After centrifugation at 10,000×g supernatant proteins were resolved on a 8% or 4-20% gradient Tris-Glycine gel, transferred onto PVDF or nitrocellulose membrane and blocked in 5% skim milk in PBS-Tween 0.1% (PBS-T). […] To control loading and transfer, protein immunoreactivities were normalized against total extracellular signal-regulated protein kinases (ERK1/2) levels with a rabbit analyzed using a rabbit polyclonal anti-ERK1/2 antibody (Cell Signaling Technology, Inc). NIH IMAGE was used to analyze the scanned blots and quantify the intensity of the protein signals.

Uch-L1 [4] = experiment: Hydrolase (ubiquitin-AMC) assay on hippocampi of injected mice; assay type: in vivo, mouse; conditions: 0.02-0.04 g/kg, i.p.
Method: as §1

phospho-CREB = experiment: Phospho-CREB immunofluorescence in hippocampal slices; assay type: cell-based, mouse
cAMP = experiment: Intracellular cAMP enzyme immunoassay; assay type: cell-based, rat; conditions: fusion protein 100 nM 24 hrs, Aβ
Method: Intracellular cAMP Enzyme Immunoassay. Hippocampal neurons from E18 rats were dissociated and plated on poly-L-lysine coated 6-well plates in minimum essential medium supplemented with N-2, glucose, albumin, pyruvic acid, antibiotics and antimycotics. […] After 24 hours, cell lysates were obtained and intracellular cAMP levels were measured using cAMP Biotrak Enzymeimmunoassay (EIA) System (Amersham) in accordance with manufacturer's instructions.

PKA = PKA kinase activity in hippocampal slices; assay type: cell-based, mouse
[5] = 0.4 mg/kg, sacrificed 4 hrs after injection

Molecule	Uch-L3 hydrolase activity (Nedd8-AMC hydrolysis) (Uch-L3 [1])	Uch-L3 hydrolase activity (Nedd8-AMC hydrolysis) (Uch-L3 [1]; listed as LDN)	IC50 (Uch-L3 [2]) [µM]	Ubiquitin-C-Terminal hydrolase activity in hippocampi (Uch-L1 [3]; [5])	Uch-L1 activity (Uch-L1 [3]; [5])	recovery of hydrolase activity (Uch-L1 [3]; single i.p. injection 0.4 mg/kg) [h]	maximal inhibition of hydrolase activity (Uch-L1 [3]; single i.p. injection 0.4 mg/kg, 30 minutes post-injection)	localisation in soluble/insoluble protein fractions (hippocampal slices)	total Uch activity in APP/PS1 mice (Uch-L1 [4])	total Uch activity in WT mice (Uch-L1 [4])	tetanus-induced increase in phospho-CREB in Aβ-treated slices (phospho-CREB; fusion protein 20 nM 1 hr, then 200 nM Aβ plus fusion protein 20 min)	tetanus-induced increase in phospho-CREB (words) (phospho-CREB; fusion protein alone)	phospho-CREB immunofluorescence without theta-burst (phospho-CREB; no tetanus)	cAMP levels in Aβ-treated cultured hippocampal neurons (words) (cAMP)	cAMP levels in Aβ-treated cultured hippocampal neurons (words) (cAMP; listed as TAT-Uch-L1 fusion protein)	cAMP levels in Aβ-treated cultured hippocampal neurons (words) (cAMP; listed as Uch-L1 fusion protein)	PKA activity (PKA; 20 nM TAT-HA-Uch-L1 1 hr, then 200 nM Aβ plus TAT-HA-Uch-L1 20 min) [%]	PKA activity in Aβ-treated slices (PKA; fusion protein 20 nM 1 hr pre-incubation, 200 nM Aβ 20 min)
CC(=O)O/N=C1\C(=O)N(Cc2cc(Cl)ccc2Cl)c2ccc(Cl)cc21 [LDN-57444, reference compound]	does not affect Uch-L3 hydrolase activity	no reduction in hydrolysis of Nedd8-AMC	25	decreased	65 % of vehicle injected controls	≤ 8	~40 % of control	–	–	–	–	–	–	–	–	–	–	–
B1	–	–	–	–	–	–	–	localized to the soluble fraction	returned to control levels; also recorded: re-established normal total Uch activity	increased above control level; also recorded: increased total Uch activity	significant protection against Aβ42 effects on phospho-CREB; also recorded: reversed; also recorded: re-established the tetanus-induced increase in CREB phosphorylation; also recorded: re-established the tetanus-induced increase in phospho-CREB	did not affect the increase; also recorded: had no effect	did not modify immunofluorescence; also recorded: neither Aβ42 alone nor TAT-HA-Uch-L1 alone nor TAT-HA-Uch-L1 paired with Aβ42 induced changes	remained low; also recorded: did not affect the decrease in cAMP levels; also recorded: does not rescue the decrease in cAMP levels	does not re-establish normal cAMP levels	does not rescue the decrease in cAMP levels	89.21±3.21	blocked the reduction; also recorded: increased levels of kinase activity
